According to paper PMC10285643 (iScience, 2023):

Target: extracellular domain of Toll-like receptor 4 (TLR4) (UniProt O00206 24-631)
Test: ITC

Sequence of extracellular domain of Toll-like receptor 4 (TLR4) (O00206 24-631): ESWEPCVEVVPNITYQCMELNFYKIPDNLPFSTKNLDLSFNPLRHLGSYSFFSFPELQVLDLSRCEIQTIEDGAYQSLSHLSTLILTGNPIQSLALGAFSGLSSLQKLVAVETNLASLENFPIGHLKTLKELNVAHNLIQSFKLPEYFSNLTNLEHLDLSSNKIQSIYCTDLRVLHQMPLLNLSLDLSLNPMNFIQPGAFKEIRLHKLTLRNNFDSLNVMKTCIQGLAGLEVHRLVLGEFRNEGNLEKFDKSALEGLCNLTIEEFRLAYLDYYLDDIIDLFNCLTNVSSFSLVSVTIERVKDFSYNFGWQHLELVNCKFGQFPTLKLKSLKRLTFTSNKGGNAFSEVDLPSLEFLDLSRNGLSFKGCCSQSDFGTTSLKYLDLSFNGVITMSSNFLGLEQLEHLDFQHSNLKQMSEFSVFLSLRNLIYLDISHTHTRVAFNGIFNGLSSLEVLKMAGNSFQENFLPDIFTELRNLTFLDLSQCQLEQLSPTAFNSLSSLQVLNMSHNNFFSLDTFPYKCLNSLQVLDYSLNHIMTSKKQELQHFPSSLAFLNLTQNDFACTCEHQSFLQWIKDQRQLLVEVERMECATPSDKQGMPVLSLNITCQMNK

B1: Cold-inducible RNA binding protein (CIRP) (natural protein, UniProt Q14011 1-172, looked up)
chain: MASDEGKLFVGGLSFDTNEQSLEQVFSKYGQISEVVVVKDRETQRSRGFGFVTFENIDDAKDAMMAMNGKSVDGRQIRVDQAGKSSDNRSRGYRGGSAGGRGFFRGGRGRGRGFSRGGGDRGYGGNRFESRSGGYGGSRDYYSSRSQSGGYSDRSSGGSYRDSYDSYATHNE
modifications: 15N-labeled (in the NMR titration)
Q: For B1, which Kd is on record?
A: 3.72 ± 1.98 µM
